Source: patent US20160185837A1 (AstraZeneca / MedImmune, published 2016)

T1: mouse GIP receptor (mouse, UniProt Q0P543 19-460)
T1 sequence (looked up): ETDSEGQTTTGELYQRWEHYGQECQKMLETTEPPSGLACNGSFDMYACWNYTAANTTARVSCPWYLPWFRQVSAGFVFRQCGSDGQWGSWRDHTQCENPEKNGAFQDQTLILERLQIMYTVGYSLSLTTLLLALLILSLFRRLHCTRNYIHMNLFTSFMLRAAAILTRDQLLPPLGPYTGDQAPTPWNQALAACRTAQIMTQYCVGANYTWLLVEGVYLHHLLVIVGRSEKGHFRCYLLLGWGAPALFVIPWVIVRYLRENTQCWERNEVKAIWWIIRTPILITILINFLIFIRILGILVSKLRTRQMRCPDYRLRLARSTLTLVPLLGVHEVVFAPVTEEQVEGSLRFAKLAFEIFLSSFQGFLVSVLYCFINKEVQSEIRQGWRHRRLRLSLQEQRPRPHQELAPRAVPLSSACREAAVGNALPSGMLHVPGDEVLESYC

T2: rat GLP-1 receptor (rat, UniProt P32301 22-463)
T2 sequence (looked up): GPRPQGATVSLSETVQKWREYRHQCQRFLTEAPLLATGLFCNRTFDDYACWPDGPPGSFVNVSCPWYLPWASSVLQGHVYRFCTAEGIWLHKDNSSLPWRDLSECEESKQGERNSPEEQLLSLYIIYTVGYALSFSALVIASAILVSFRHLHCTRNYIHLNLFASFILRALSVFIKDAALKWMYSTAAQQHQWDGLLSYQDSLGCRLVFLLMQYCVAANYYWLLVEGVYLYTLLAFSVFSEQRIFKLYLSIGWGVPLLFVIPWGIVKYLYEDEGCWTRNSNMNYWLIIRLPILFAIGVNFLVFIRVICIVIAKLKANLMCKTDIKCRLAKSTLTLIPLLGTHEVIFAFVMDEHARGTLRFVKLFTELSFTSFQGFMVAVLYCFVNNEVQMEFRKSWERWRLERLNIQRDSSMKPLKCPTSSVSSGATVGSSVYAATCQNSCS

T3: mouse GLP-1 receptor (mouse, UniProt O35659 22-463)
T3 sequence (looked up): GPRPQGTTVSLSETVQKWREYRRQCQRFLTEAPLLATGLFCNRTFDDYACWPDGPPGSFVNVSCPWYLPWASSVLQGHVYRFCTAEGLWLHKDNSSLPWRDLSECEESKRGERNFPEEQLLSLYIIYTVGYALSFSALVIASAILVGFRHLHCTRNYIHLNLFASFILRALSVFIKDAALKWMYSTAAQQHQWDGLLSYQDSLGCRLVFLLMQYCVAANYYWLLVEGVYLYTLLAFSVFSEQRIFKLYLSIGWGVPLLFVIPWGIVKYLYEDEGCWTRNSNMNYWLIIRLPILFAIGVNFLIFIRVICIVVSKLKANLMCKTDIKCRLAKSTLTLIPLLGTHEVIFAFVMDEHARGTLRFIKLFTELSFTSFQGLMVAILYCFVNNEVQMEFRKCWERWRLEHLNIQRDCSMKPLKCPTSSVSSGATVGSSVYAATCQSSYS

T4: rat GIP receptor (rat, UniProt P43219 19-455)
T4 sequence (looked up): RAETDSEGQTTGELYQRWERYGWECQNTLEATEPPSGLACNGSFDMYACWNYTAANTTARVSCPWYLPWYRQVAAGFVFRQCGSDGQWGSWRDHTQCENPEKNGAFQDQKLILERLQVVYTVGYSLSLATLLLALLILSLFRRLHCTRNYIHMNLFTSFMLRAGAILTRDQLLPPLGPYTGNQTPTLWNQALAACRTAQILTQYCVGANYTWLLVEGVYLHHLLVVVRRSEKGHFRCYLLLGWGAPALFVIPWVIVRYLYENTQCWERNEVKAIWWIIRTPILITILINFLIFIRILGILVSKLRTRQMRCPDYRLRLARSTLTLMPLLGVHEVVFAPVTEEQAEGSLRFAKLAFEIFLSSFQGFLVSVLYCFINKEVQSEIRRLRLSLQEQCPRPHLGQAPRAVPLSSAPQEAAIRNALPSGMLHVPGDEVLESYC

T5: human GIP receptor (human, UniProt P48546 22-466)
T5 sequence (looked up): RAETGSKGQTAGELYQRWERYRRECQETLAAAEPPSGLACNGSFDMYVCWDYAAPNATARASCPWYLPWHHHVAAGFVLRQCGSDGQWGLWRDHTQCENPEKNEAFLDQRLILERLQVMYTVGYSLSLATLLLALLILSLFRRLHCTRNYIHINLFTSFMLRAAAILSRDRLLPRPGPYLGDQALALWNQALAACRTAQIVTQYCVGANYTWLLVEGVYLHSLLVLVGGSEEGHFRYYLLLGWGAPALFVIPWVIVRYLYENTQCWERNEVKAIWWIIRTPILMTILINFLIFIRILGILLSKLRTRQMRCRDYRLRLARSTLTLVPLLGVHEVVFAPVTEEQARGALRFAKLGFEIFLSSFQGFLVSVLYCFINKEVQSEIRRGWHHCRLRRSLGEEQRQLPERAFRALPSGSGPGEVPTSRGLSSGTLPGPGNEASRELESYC


Columns and labels:
Test in all cases: cell-based or functional assay
mouse GIP receptor = target: T1, mouse GIP receptor
rat GLP-1 receptor = target: T2, rat GLP-1 receptor
human GLP-1 receptor = human GLP-1 receptor (human, UniProt P43220 24-463)
human glucagon receptor = human glucagon receptor (human, UniProt P47871 26-477)
mouse GLP-1 receptor = target: T3, mouse GLP-1 receptor
rat GIP receptor = target: T4, rat GIP receptor
human GIP receptor = target: T5, human GIP receptor

Binder | cAMP EC50 (mouse GIP receptor) [nM] | cAMP EC50 (rat GLP-1 receptor) [nM] | cAMP EC50 (human GLP-1 receptor) [nM] | cAMP EC50 (human glucagon receptor) [nM] | cAMP EC50 (mouse GLP-1 receptor) [nM] | cAMP EC50 (rat GIP receptor) [nM] | cAMP EC50 (human GIP receptor) [nM] | cAMP EC50, Batch 2 (mouse GIP receptor) [nM] | cAMP EC50, Batch 2 (rat GLP-1 receptor) [nM] | cAMP EC50, Batch 2 (human GLP-1 receptor) [nM] | cAMP EC50, Batch 2 (human glucagon receptor) [nM] | cAMP EC50, Batch 2 (mouse GLP-1 receptor) [nM] | cAMP EC50, Batch 2 (rat GIP receptor) [nM] | cAMP EC50, Batch 2 (human GIP receptor) [nM]
IP213 (Fc fusion) YSEGTFTSDYSKLLEEEAVRLFIEWLLAGGAAAGGSGSTASSGSGSATGGGGAATHTCPPCPAPEF | 2.5 | 0.087 | 0.087 | 18 | 0.82 | 0.054 | 0.0059 | – | – | – | – | – | – | –
IP297 (Fc fusion) YSEGTFTSDYSKLLEEEAVRLFIEWLLAGGGGGGGGGGGGGGGGGGGGGGGGGACPPC | 8.1 | 0.028 | 0.19 | 31 | 0.82 | 0.089 | 0.015 | – | – | – | – | – | – | –
IP300 (Fc fusion) YSEGTFTSDYSKLLEEEAVRLFIEWLLAGAPPGGGGGGGGGGGGGGGGGGGGGACPPC | 0.9 | 0.027 | 0.21 | 21 | 0.94 | 0.069 | 0.013 | – | – | – | – | – | – | –
IP322 (Fc fusion) YSEGTFTSDYSKLLEEEAVRLFIEWLVKGPGGGGGSGGGGSGGGGSGGGGSGGGGSA | 8.3 | 0.025 | 0.29 | 260 | 0.41 | 0.11 | 0.026 | – | – | – | – | – | – | –
IP323 (Fc fusion) YSEGTFTSDYSKLLEEEAVRLFIEWLVKGPGGGGGSGGGGSGGGGSGGGGSGGGGSGGGGSA | 65 | 0.019 | 0.2 | 190 | 0.34 | 0.082 | 0.017 | – | – | – | – | – | – | –
IP324 (Fc fusion) YSEGTFTSDYSKLLEEEAVRLFIEWLVKGPGGGGGSGGGGSGGGGSGGGGSGGGGSGGGGSGGGGSA | 240 | 0.04 | 0.4 | 470 | 0.72 | 0.14 | 0.037 | 67.5 | 0.0363 | 0.14 | 120 | 0.391 | 0.141 | 0.016
IP325 (Fc fusion) YSEGTFTSDYSKLLEEEAVRLFIEWLVKGPGGGGGSGGGGSGGGGSGGGGSGGGGSGGGGSGGGGSGGGGSA | 170 | 0.035 | 0.46 | > 455 | 0.64 | 0.13 | 0.037 | 57.2 | 0.0519 | 0.16 | 110 | 0.488 | 0.154 | 0.018
IP087 (Fc fusion) YSEGTFTSDYSKLLEEEAVRLFIEWLLAGPAAAGGSGSTASSGSGSATGGGGAATHTCPPCPAPEF | 5.7 | 0.11 | 0.28 | 9.6 | 1.2 | 0.17 | 0.0086 | – | – | – | – | – | – | –
IP326 (Fc fusion) YSEGTFTSDYSKLLEEEAVRLFIEWLLAGGGGGGGSGGGGSGGGGSGGGGSGGGGSA | 1.7 | 0.039 | 0.37 | 15 | 0.87 | 0.037 | 0.027 | – | – | – | – | – | – | –
